B1: K1-18 monoclonal antibody, wild type (antibody, V domains shown)
VH: EVQLVQSGAEVKKPGESLKISCKGSGYSFTNYWIGWVRQMPGKGLEWMGIIYPYDSDTRYSPSFEGQVTISADKSIRTAYLHWSSLKASDTAMYYCVRPRDGSYPYDAFDIWGQGTMVTVSS
VL: EIVLTQSPGTLSLSPGERATLSCRASQSVSNNYLAWYQQKPGQAPRLLIYGASSRATGIPDRFSGSGSGTDFTLTISRLEPEDFAVYYCQHCGSSLRAFGQGTKVEIK
notes: constant region of the λ chain is not described; IgG1; thyroid-stimulating autoantibody (TRAb) from a Graves' disease patient; also called WT K1-18; K1-18 mAb; source: recombinant, V regions synthesized and cloned into pME18S expression vectors
B2: germlined K1-18 monoclonal antibody (antibody, V domains shown)
VH: EVQLVQSGAEVKKPGESLKISCKGSGYSFTSYWIGWVRQMPGKGLEWMGIIYPGDSDTRYSPSFEGQVTISADKSIRTAYLHWSSLKASDTAMYYCARPRDGSYPYDAFDIWGQGTMVTVSS
VL: EIVLTQSPGTLSLSPGERATLSCRASQSVSSSYLAWYQQKPGQAPRLLIYGASSRATGIPDRFSGSGSGTDFTLTISRLEPEDFAVYYCQHCGSSLRAFGQGTKVEIK
notes: constant region of the λ chain is not described; IgG1; also called germlined K1-18 mAb; source: recombinant, mutated from wild-type K1-18 V regions (QuikChange), pME18S expression vectors
B3: M22 thyroid-stimulating monoclonal antibody (antibody, V domains shown)
VH: QVQLVQSGAEVKKPGESLKISCRGSGYRFTSYWINWVRQLPGKGLEWMGRIDPTDSYTNYSPSFKGHVTVSADKSINTAYLQWSSLKASDTGMYYCARLEPGYSSTWSVNWGQGTLVTVSS
VL: LTVLTQPPSVSGAPRQRVTISCSGNSSNIGNNAVNWYQQLPGKAPKLLIYYDDQLPSGVSDRFSGSRSGTSASLAIRGLQSEDEADYYCTSWDDSLDSQLFGGGTRLTVL
notes: constant region of the λ chain is not described; IgG1; also called M22 mAb; source: recombinant, V regions synthesized and cloned into pME18S expression vectors

What was measured:
[1] = target: T1, human TSHR extracellular domain complexed with HLA-DP5 (Homo sapiens; HLA-DPA1*02:02/DPB1*05:01, UniProt P16473;IMGT, strain); assay: flow cytometry on cells; HEK293T cells transfected with TSHR or TSHR ECD with or without HLA-DP (pME18S, with GFP), incubated with the human anti-TSHR mAb, then APC-conjugated anti-human IgG; FACSCalibur; MFI minus that of GFP-negative cells
T1 construct: human TSHR extracellular domain (ECD), residues 22 to 282; the ECD has no membrane anchor of its own and is seen on the cell surface with HLA-DP5; also called TSHR ECD with HLA-DP5; TSHR ECD/HLA-DP complex; source: HEK293T, co-transfected (pME18S), on cells; not shown: Flag, N-terminal, kept; copies: + +

[2] = target: T2, full-length human TSHR complexed with HLA-DP5 (HLA-DPA1*02:02/HLA-DPB1*05:01) (Homo sapiens; …, UniProt P16473;IMGT, strain); assay: as above
T2 construct: thyroid-stimulating hormone receptor (TSHR), human, cDNA AY429111.1, full length; co-expressed in one cell; also called TSHR with HLA-DP5; TSHR/HLA-DP5 complex; source: HEK293T, co-transfected (pME18S), on cells; copies: + +

[3] = target: T3, full-length mouse TSHR with I-A^k on DAP.3 cells (Mus musculus; I-Ak, UniProt P47750;P01910;P06343); assay: flow cytometry on cells; DAP.3 cells stably expressing mTSHR alone or mTSHR and I-A^k stained with K1-18 mAb; DAP.3 parental cells as control
T3 construct: thyroid-stimulating hormone receptor, mouse, cDNA NM_011648.5, full length; mouse MHC class II I-A^k alpha chain, cDNA V00832.1; mouse MHC class II I-A^k beta chain, cDNA M13538.1; co-expressed in one cell; also called mTSHR + I-A^k; mTSHR and I-A^k; copies: + +
T3 sequence (P47750 22-764, chain 1 of 3): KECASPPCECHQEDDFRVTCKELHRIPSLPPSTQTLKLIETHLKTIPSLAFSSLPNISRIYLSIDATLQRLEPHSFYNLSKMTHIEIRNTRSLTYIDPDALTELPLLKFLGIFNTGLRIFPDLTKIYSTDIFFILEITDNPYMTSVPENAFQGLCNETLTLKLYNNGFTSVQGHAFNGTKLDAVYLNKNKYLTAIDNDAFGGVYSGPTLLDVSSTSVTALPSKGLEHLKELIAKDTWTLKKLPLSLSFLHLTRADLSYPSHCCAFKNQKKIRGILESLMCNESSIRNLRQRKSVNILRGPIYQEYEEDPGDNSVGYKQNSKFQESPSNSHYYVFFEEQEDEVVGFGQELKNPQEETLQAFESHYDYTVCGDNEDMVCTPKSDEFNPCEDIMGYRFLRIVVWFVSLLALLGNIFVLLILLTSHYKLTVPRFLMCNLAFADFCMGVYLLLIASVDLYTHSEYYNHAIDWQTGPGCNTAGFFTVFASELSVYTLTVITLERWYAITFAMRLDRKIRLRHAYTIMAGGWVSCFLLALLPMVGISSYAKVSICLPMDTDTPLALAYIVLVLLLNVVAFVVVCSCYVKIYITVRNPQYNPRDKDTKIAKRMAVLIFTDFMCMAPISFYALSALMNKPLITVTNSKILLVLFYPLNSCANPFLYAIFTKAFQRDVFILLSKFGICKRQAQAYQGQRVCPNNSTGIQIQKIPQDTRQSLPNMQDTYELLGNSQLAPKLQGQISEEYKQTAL
T3 sequence (P01910 24-256, chain 2 of 3): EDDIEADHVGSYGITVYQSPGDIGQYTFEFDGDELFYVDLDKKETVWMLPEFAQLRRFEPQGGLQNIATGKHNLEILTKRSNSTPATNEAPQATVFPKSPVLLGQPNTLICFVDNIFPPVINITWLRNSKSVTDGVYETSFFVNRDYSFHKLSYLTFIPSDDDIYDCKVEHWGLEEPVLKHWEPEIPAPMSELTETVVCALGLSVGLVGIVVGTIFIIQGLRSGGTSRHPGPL
T3 sequence (P06343 28-263, chain 3 of 3): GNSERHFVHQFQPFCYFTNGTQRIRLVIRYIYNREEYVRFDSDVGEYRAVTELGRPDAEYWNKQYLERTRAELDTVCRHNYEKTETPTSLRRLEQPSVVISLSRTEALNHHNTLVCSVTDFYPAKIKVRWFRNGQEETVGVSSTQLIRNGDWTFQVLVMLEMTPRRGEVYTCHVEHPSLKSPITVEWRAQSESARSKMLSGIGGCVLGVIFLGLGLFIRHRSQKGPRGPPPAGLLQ

[4] = target: T4, full-length mouse TSHR on DAP.3 cells (mTSHR alone) (Mus musculus, UniProt P47750); assay: as above
T4 construct: thyroid-stimulating hormone receptor, mouse, cDNA NM_011648.5, full length
T4 sequence (P47750 22-764): as the sequence (P47750 22-764, chain 1 of 3) above

[5] = target: T5, full-length human TSHR cotransfected with HLA-DP4 (HLA-DPA1*01:03/HLA-DPB1*04:01) (Homo sapiens; HLA-DPA1*01:03/DPB1*04:01, UniProt P16473;IMGT, strain); assay: flow cytometry on cells; HEK293T cells transfected with TSHR or TSHR ECD with or without HLA-DP (pME18S, with GFP), incubated with the human anti-TSHR mAb, then APC-conjugated anti-human IgG; FACSCalibur; MFI minus that of GFP-negative cells
T5 construct: thyroid-stimulating hormone receptor (TSHR), human, cDNA AY429111.1, full length; co-expressed in one cell; also called TSHR with HLA-DP4; source: HEK293T, co-transfected (pME18S), on cells; copies: + +

[6] = target: T6, full-length human thyroid-stimulating hormone receptor, transfected alone (Homo sapiens, UniProt P16473); assay: as above
T6 construct: thyroid-stimulating hormone receptor (TSHR), human, cDNA AY429111.1, full length; no MHC class II co-transfected; also called TSHR; human TSHR; source: HEK293T, transfected (pME18S), on cells

[7] = target: T7, porcine TSHR (Sus scrofa, UniProt Q8SPP9); assay: flow cytometry on cells; HEK293T cells transfected with pTSHR and GFP, mixed with PBS or purified mouse serum IgGs, washed, stained with M22 mAb, then APC-conjugated anti-human IgG
T7 construct: thyroid-stimulating hormone receptor, porcine, cDNA NM_214297.1; also called pTSHR; source: HEK293T, transfected (with GFP), on cells
T7 sequence (Q8SPP9 22-764): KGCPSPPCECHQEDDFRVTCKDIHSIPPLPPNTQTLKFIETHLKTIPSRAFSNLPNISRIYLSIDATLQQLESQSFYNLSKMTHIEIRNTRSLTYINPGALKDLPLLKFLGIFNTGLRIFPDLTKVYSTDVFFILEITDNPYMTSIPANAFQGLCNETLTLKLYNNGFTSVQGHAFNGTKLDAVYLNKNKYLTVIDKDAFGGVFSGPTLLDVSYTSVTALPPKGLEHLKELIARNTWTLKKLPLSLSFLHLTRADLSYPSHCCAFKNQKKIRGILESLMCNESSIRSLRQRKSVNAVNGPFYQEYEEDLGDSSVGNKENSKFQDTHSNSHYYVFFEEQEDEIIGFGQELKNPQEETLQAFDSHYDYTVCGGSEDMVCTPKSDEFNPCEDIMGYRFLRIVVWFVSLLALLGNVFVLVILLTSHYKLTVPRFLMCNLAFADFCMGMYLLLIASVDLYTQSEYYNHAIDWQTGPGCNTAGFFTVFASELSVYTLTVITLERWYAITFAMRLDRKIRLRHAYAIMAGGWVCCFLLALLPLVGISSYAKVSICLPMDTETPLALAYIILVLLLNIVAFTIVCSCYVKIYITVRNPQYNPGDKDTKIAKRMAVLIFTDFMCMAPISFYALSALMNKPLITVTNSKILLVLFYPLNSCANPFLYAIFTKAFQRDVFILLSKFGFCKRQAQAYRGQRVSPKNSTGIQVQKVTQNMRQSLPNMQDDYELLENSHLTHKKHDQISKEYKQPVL

| Binder | binding result [1] | binding result [2] | binding result [3] | binding result [4] | binding result [5] | binding result [6] | binding result [7] |
| --- | --- | --- | --- | --- | --- | --- | --- |
| B1 | binds | binds | binds | binds | – | – | – |
| B2 | – | binds | – | – | no binding | no binding | – |
| B3 | – | – | – | – | – | – | binds |

— publication PMC8896794 (Science Advances, 2022)
